Experimental data from patent US7662583B2, “Bioreactor containing cells expressing glycosyltransferase nucleic acids isolatable from Arabidopsis” (The University of York, priority 2003, dated 2010).

B1: UGT73B3: Arabidopsis recombinant glycosyltransferase (protein, UniProt Q8W491 1-481, looked up)
UDP-glycosyltransferase 73B3: MSSDPHRKLHVVFFPFMAYGHMIPTLDMAKLFSSRGAKSTILTTPLNSKIFQKPIERFKNLNPSFEIDIQIFDFPCVDLGLPEGCENVDFFTSNNNDDRQYLTLKFFKSTRFFKDQLEKLLETTRPDCLIADMFFPWATEAAEKFNVPRLVFHGTGYFSLCSEYCIRVHNPQNIVASRYEPFVIPDLPGNIVITQEQIADRDEESEMGKFMIEVKESDVKSSGVIVNSFYELEPDYADFYKSVVLKRAWHIGPLSVYNRGFEEKAERGKKASINEVECLKWLDSKKPDSVIYISFGSVACFKNEQLFEIAAGLETSGANFIWVVRKNIGIEKEEWLPEGFEERVKGKGMIIRGWAPQVLILDHQATCGFVTHCGWNSLLEGVAAGLPMVTWPVAAEQFYNEKLVTQVLRTGVSVGAKKNVRTTGDFISREKVVKAVREVLVGEEADERRERAKKLAEMAKAAVEGGSSFNDLNSFIEEFTS
B2: UGT73C5: Arabidopsis recombinant glycosyltransferase, FIG. 11 (protein, listed as Arabidopsis thaliana)
chain: MVSETTKSSPLHFVLFPFMAQGHMIPMVDIARLLAQRGVIITIVTTPHNAARFKNVLNRAIESGLPINLVQVKFPYLEAGLQEGQENIDSLDTMERMIPFFKAVNFLEEPVQKLIEEMNPRPSCLISDFCLPYTSKIAKKFNIPKILFHGMGCFCLLCMHVLRKNREILDNLKSDKELFTVPDFPDRVEFTRTQVPVETYVPAGDWKDIFDGMVEANETSYGVIVNSFQELEPAYAKDYKEVRSGKAWTIGPVSLCNKVGADKAERGNKSDIDQDECLKWLDSKKHGSVLYVCLGSICNLPLSQLKELGLGLEESQRPFIWVIRGWEKYKELVEWFSESGFEDRIQDRGLLIKGWSPQMLILSHPSVGGFLTHCGWNSTLEGITAGLPLLTWPLFADQFCNEKLVVEVLKAGVRSGVEQPMKWGEEEKIGVLVDKEGVKKAVEELMGESDDAKERRRRAKELGDSAHKAVEEGGSSHSNISFLLQDIMELAEPNN
B3: UGT85A1: glycosyltransferase, FIG. 12, glucosylates cytokinins (protein, listed as Arabidopsis thaliana)
chain: MGSQIIHNSQKPHVVCVPYPAQGHINPMMRVAKLLHARGFYVTFVNTVYNHNRFLRSRGSNALDGLPSFRFESIADGLPETDMDATQDITALCESTMKNCLAPFRELLQRINAGDNVPPVSCIVSDGCMSFTLDVAEELGVPEVLFWTTSGCAFLAYLHFYLFIEKGLCPLKDESYLTKEYLEDTVIDFIPTMKNVKLKDIPSFIRTTNPDDVMISFALRETERAKRASAIILNTFDDLEHDVVHAMQSILPPVYSVGPLHLLANREIEEGSEIGMMSSNLWKEEMECLDWLDTKTQNSVIYINFGSITVLSVKQLVEFAWGLAGSGKEFLWVIRPDLVAGEEAMVPPDFLMETKDRSMLASWCPQEKVLSHPAIGGFLTHCGWNSILESLSCGVPMVCWPFFADQQMNCKFCCDEWDVGIEIGGDVKREEVEAVVRELMDGEKGKKMREKAVEWQRLAEKATEHKLGSSVMNFETVVSKFLLGQKSQD

Columns and labels:
[1] = Solubility of quercetin under buffer conditions used; format: physicochemical; conditions: buffer conditions used in the fermenter
Protocol: In order to explore the potential of the whole-cell biocatalysts for large-scale production of glucosides in the absence of added UDP-glucose, transformed bacterial cells were cultured in a fermenter. This process enabled conditions to be controlled tightly throughout the production cycle and a direct comparison to be made of the efficiency of conversion of whole-cell UGT biocatalysis in a simple culture flask and an optimised fermenter system. UGT73B3 was chosen for the analysis, since preliminary experiments (Table 2) had shown formation of a single product, the 3-O-glucoside, at levels of 8.96 μg/ml following 24 h incubation. […] The Figure also illustrates the final level of glucoside was much higher than the soluble aglycone at time 0 h.

[2] = UGT enzyme reaction with quercetin (recombinant UGTs, HPLC); format: biochemical, Arabidopsis; conditions: 0.5 mM quercetin, 5 mM UDP-glucose, 30° C.; for Specific activity (nkat/mg protein) 3-O-glc: quercetin glucosylated at 3-OH; for Specific activity (nkat/mg protein) 3′-O-glc: quercetin glucosylated at 3′-OH; for Specific activity (nkat/mg protein) 4′-O-glc: quercetin glucosylated at 4′-OH; for Specific activity (nkat/mg protein) 7-O-glc: quercetin glucosylated at 7-OH
Outline: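 Recombinant Arabidopsis UGTs (2 μg) incubated with 0.5 mM quercetin and 5 mM UDP-glucose in 100 mM Tris-HCl pH 7.0 at 30 °C for 1 h. Quercetin glucosides separated from aglycone by reverse-phase C18 HPLC (acetonitrile gradient, 0.1% TFA), detected at 370 nm.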

[3] = Whole-cell biocatalyst assay, E. coli expressing UGT in culture medium; format: cell-based; conditions: E. coli, 2x YT medium, 0.1 mM IPTG, 0.1 mM quercetin, 24 h, no added UDP-glucose
Protocol: FIG. 14 Whole-cell biocatalyst assay using UGT71C1. E. coli cells expressing recombinant were used in the biocatalyst assay. After incubation with 0.1 mM quercetin and 0.1 mM IPTG, cells were collected by centrifugation, extracted with 80% methanol and both the cell extracts (pellet) and culture medium (supernatant) were analysed using HPLC. (A) Changes in the combined amounts of aglycone/glucoside over a time-course of 0-48 h. (B) Changes in the level of different glucosides and aglycone in the culture medium over the same time-course.
Using the foundation established in the preceding example, we went on to investigate the potential of E. coli expressing plant UGTs as whole-cell biocatalysts to synthesise glucosides of quercetin. In the first instance, we used E. coli grown in 75 ml of standard culture medium. […] Table 2 describes results in which 7 different UGTs are expressed in E. coli and the identity and quantity of different glucosides recovered in the medium were analysed by HPLC. […] There was considerable variation in the level of different glucosides synthesised by the cells, although even under these non-optimised conditions, each of the four monoglucosides and two di-O-glucosides could be formed.

[4] = Whole-cell bioreactor assay in fermentor system; format: cell-based, E. coli
Protocol: A 6 L glass autoclavable fermentor system (Applikon Biotechnology Ltd.) was used for large-scale analysis of UGT whole-cell biocatalysts. E. coli BL21 overnight culture (40 ml) expressing UGT was transferred into the fermentor system containing 2 L of LB medium previously equilibrated at 30° C., pH 7.4. The dissolved O2 level was maintained at 95% for 1 h and was decreased to 60% throughout the remaining process. When the culture reached an optical density at 0.2, the temperature was lowered to 20° C. 0.1 mM of isopropyl-1-thio-β-D-galactopyranoside and 2 g of quercetin were added after the bacterial culture reached an optical density at 0.6. Samples were harvested at intervals and the bacterial cells were removed by centrifugation. The resulting supernatant fractions (culture medium) were analysed with HPLC.
In order to explore the potential of the whole-cell biocatalysts for large-scale production of glucosides in the absence of added UDP-glucose, transformed bacterial cells were cultured in a fermenter. This process enabled conditions to be controlled tightly throughout the production cycle and a direct comparison to be made of the efficiency of conversion of whole-cell UGT biocatalysis in a simple culture flask and an optimised fermenter system. […]

[5] = UGT enzyme reaction with cytokinins; format: biochemical
Protocol: The assay mix (200 μl) contained 2 μg of recombinant protein, 100 mM Tris-HCl, pH 8.0, 5 mM UDP-glucose 0.5 mM ATP, 50 mM MgCl2, and 0.5 mM of cytokinin. The reaction was carried out at 30° C. for 3 h, and was quick-frozen and stored at −20° C. prior to the reverse-phase HPLC analysis
Reverse-phase HPLC (SpectraSYSTEM HPLC systems and UV6000LP Photodiode Array Detector, ThermoQuest) analysis was carried using a Columbus 5μ C18 column (250×4.60 mm, PHENOMENEX). Quercetin glucosides were separated from the aglycone by a linear gradient of 10-75% acetonitrile in H2O (all solution contained 0.1% trifluoroacetic acid) at 1 ml/mm over 20 mm and monitored at 370 nm. Cytokinin glucosides were separated from their aglycone by a liner gradient of 10-100% methanol in H2O (for N6-isopentenyladenine (iP), N6-benzyladenine and kinetin) or 10-60% methanol in H2O (for trans-zeatin and dihydrozeatin) at 1 ml/min over 20 mm. All solution contained 0.25% acetic acid and 0.04% triethylamine, trifluoroacetic acid. The separation was monitored at 206 nm and 252 nm. The identity of the products was confirmed by comparison with authentic gluco sides.
• 1. 7-N-glucoside (76C1, 76C2) • 2. 9-N-glucoside (76C1, 76C2) • 3. O-glucoside (only apply to trans-Zeatin and dihydrozeatin) (85A1 for trans-Zeatin; 85A1 and 73C5 for dihydrozeatin) Large Scale Fermentation

Row | Molecule | solubility [1] | Specific activity (nkat/mg protein) 3-O-glc [2] | Specific activity (nkat/mg protein) 3′-O-glc [2] | Specific activity (nkat/mg protein) 4′-O-glc [2] | Specific activity (nkat/mg protein) 7-O-glc [2] | Culture medium (μg/ml in supernatant) 3-O-glc [3] [µg/mL] | yield of 3-O-glucoside, fermenter versus culture flask ([4]; 99.3 μg/ml at 20 h versus 8.96 μg/ml at 24 h) [fold] | yield of 3-O-glucoside in the culture ([4]; fermenter system, 20 h) [µg/mL] | Cytokinin products formed by the UGTs: O-glucoside ([5]; substrate dihydrozeatin) | Cytokinin products formed by the UGTs: O-glucoside ([5]; substrate trans-Zeatin)
1 | O=c1c(O)c(-c2ccc(O)c(O)c2)oc2cc(O)cc(O)c12 [Quercetin, quercetin] | relatively insoluble |  |  |  |  |  |  |  |  | 
2 | B1 |  | 1.57 nkat/mg protein | — (Activity lower than 0.02 nkat/mg protein has been considered as trace activity and is not shown in the Table.) | — (Activity lower than 0.02 nkat/mg protein has been considered as trace activity and is not shown in the Table.) | — (Activity lower than 0.02 nkat/mg protein has been considered as trace activity and is not shown in the Table.) | 8.96 | 10 | 99.3 |  | 
3 | B2 |  | — (Activity lower than 0.02 nkat/mg protein has been considered as trace activity and is not shown in the Table.) | — (Activity lower than 0.02 nkat/mg protein has been considered as trace activity and is not shown in the Table.) | 0.25 nkat/mg protein | 0.11 nkat/mg protein |  |  |  | O-glucoside | 
4 | B3 |  |  |  |  |  |  |  |  | O-glucoside | O-glucoside
